Assays:
[1] = molecular target: P1126 (Amblyomma cajennense); test: BLI; OctetRed; evasin held on a nickel-coated biosensor by its C-terminal His tag; titration with chemokine from 600 to 0.4 nM; noninteracting reference protein; fit R2 ≥0.96, at least five data points
[2] = molecular target: P1142 (Amblyomma cajennense); test: as above
P675 (Ixodes ricinus) = test: as above
P942 (Ixodes ricinus) = test: as above
[3] = molecular target: CXC-motif chemokine ligand 10 (CXCL10) (human) (UniProt P02778)

Sequence of CXCL11 (O14625 22-94): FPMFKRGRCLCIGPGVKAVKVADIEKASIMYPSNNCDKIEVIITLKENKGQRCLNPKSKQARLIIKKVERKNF

Row | Substance | Kd [1] | Kd [2] | target residence time [2] | Kd (P675 (Ixodes ricinus)) | Kd (P942 (Ixodes ricinus)) | neutralization of human CXCL8-induced granulocyte migration (Transwell, EC80 dose of CXCL8, EVA3:S5 0.05–200 nM); mean IC50 of four biological replicates (CXCL8 (human)) | neutralization of human CXCL10-induced migration of activated human CD8+ T-cells (Transwell, EC80 dose of CXCL10, EVA3:S5 0.015–1000 nM); mean IC50 of five biological replicates [3] | neutralization of human CXCL10-induced migration of activated human CD8+ T-cells (Transwell, EC80 dose of CXCL10, P1142 0.015–150 nM); mean IC50 of five biological replicates [3]
1 | CXC-motif chemokine ligand 10 (CXCL10) (from UniProt P02778 22-98) | < 10 nM | < 10 nM | > 10 min | > 100 nM | > 100 nM | – | – | –
2 | CXCL11 (from UniProt O14625 22-94) (ligand) | > 300 nM | > 300 nM | – | < 20 nM | < 20 nM | – | – | –
3 | EVA3:S5 (from UniProt P0C8E8 70-86) | – | – | – | – | – | 3.23e-08 M | 3.11e-08 M | –
4 | P1142 (natural protein) | – | – | – | – | – | – | – | 1.85e-09 M
